Legend:
[1] = target: T1, Human C5aR (C5aR1) (human, UniProt P21730 1-350); test: cell-based or functional assay
T1 sequence: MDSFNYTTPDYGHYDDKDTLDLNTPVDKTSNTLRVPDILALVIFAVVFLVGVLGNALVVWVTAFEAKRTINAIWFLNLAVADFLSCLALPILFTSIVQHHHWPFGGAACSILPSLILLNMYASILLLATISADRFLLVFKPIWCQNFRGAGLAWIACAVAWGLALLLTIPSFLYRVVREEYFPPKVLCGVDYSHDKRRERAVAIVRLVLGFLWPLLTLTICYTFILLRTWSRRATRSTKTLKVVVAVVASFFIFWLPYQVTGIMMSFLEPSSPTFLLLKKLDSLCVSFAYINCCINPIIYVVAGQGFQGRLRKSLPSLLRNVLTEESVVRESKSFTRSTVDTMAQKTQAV

[2] = target: T1, Human C5aR (C5aR1); test: FACS titration on human neutrophils in vitro; FACS titration on human neutrophils in vitro, given in nM
[3] = target: T1, Human C5aR (C5aR1); test: EC50 of C5aR saturation in the PD part of the PKPD model, derived from PK/receptor saturation data of the phase I trial; PD parameter of the PKPD model, from phase I PK/receptor saturation data; not in vitro
Source text: A PKPD model was built in Phoenix 64 WinNonLin version 8.1.0.3530, to predict avdoralimab serum concentrations in blood post s.c. administration, as well as C5aR saturation. Pharmacokinetics of therapeutic mAbs are usually modelled using a two-compartment model (Deng et al. 2011 MAbs 3(1): 61-66). Based on the PK results described in Example 1, avdoralimab is expected to display PK properties similar to other therapeutic antibodies in humans, except for compound-specific target-mediated drug disposition (TMDD). This TMDD effect can be modelled by an additional non-linear elimination added to the model (Wang et al. 2016 Biopharm. Drug Dispos. 37: 51-65). […] Absorption rate (Ka) and bioavailability (Ba) for s.c. administration were estimated based on PK results for Example 1. EC₅₀ in the PD part of PKPD model is derived from PK/RSA data observed in phase I clinical trial, and is similar to EC₅₀ binding to human neutrophils in vitro=0.34 nM=51 ng/mL in FACS titration assays.

EC50 for inhibition of C5a-induced CD11b expression on neutrophils in human whole blood (flow cytometry, MedFI, normalized) [1]: 0.34 µg/mL | EC50 [2]: 0.34 nM | EC50 [3]: 0.05 µg/mL
B1: Avdoralimab (antibody, human IgG1, kappa, V domains shown)
VH: EVQLVESGGGLVQPGGSLRLSCAASGFTFSSYVMHWVRQATGKGLEWVSAIDTGGGTYYADSVKGRFTISRENAKNSLYLQMNSLRAGDTAVYYCARDYYYYASGSYYKAFDIWGQGTMVTVSS
VL: EIVLTQSPGTLSLSPGERATLSCRASQSVSSRYLAWYQQKPGQAPRLLIYGASSRATGIPDRFSGSGSGTDFTLTISRLEPEDFAVYYCQQYGSPLTFGQGTKLEIKR
notes: also called IPH5401

— US20230340140A1 (INNATE PHARMA, published 2023)
